Measured values taken from article PMC3741642.

Target: T1, hEndoV (FLJ35220, human endonuclease V) (Homo sapiens, UniProt Q8N8Q3 1-282)
T1 sequence: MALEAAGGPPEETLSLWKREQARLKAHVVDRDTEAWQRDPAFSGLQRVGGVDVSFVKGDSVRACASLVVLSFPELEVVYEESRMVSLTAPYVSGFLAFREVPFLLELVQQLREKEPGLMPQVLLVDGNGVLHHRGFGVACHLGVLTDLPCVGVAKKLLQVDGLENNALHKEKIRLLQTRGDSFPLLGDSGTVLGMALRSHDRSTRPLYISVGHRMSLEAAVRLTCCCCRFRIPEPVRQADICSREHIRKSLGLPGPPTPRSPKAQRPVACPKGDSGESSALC
Assay: EMSA; 5 mM CaCl2; EMSA: 0.2 nM 32P substrate, 10 mM HEPES-KOH pH 8.0, 1 mM DTT, 2% glycerol, 5 mM CaCl2, 4 °C 30 min; nondenaturing 8% PAGE

B1: dsRNA without inosine (dsRNA)
RNA 1: CUGUAUGAUGAAGAUGCUGAC
RNA 2: GUCAGCAUCUUCAUCAUACAG
  binding result: binds
